The RNAGym collection of RNA variant scans (doi:10.1073/pnas.2313332121)

B1: TPR t1 (parent)
chain: GACCAAUCUGCCCUCAGAGCUCGAGAACAUCUUCGGAUGCAGAGGAGGCAGGCUUCGGUGGCGCGAUAGCGCCAACGUCCUCAACCUCCAAUGCAUCCCACCACAUGAUGAUGCCUGAAGAGCCUUGGUUUUUUG

Variants of: B1
Test: polymerase ribozyme fitness, log enrichment relative to wild type (log ratio); higher = more active; in vitro selection for triplet polymerase activity
Procedure, shortened: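 Mutant libraries were PCR-built and transcribed for each subunit of a heterodimeric triplet polymerase ribozyme and selected for one round in triplicate at −7 °C, frozen, before gel excision of extended constructs and streptavidin-bead capture. Input and output libraries were Illumina-sequenced, keeping genotypes with ≥10 input reads and ≥1 read per output. Fitness is a logarithmic ratio of genotype to wild-type enrichment, in base 2, using inverse-variance-weighted replicate averages.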
For U9G C53A A95C U112G, the “polymerase ribozyme fitness (log ratio)” value was -0.929. With C11A C12A C62U C102A C115U U130G the “polymerase ribozyme fitness (log ratio)” value was -8.31. For G10U A111U, the “polymerase ribozyme fitness (log ratio)” value was -3.44. With G10A C80U the “polymerase ribozyme fitness (log ratio)” value was -0.522. For G10U C62U C88U C89G A121G U132C, the “polymerase ribozyme fitness (log ratio)” value was 0.563. For G10A C13U G61U, the “polymerase ribozyme fitness (log ratio)” value was -0.325. With G10A C15U G17A A41U C72U A105U G120A G122A the “polymerase ribozyme fitness (log ratio)” value was -5.83. In the case of C11A A37U G63C U116G, the “polymerase ribozyme fitness (log ratio)” value is reported as -5.29. With G10U C11G G35A C64U C123A the “polymerase ribozyme fitness (log ratio)” value was -5.01. For G10C A83U, the “polymerase ribozyme fitness (log ratio)” value was -1.28. With G10A A84U G110U the “polymerase ribozyme fitness (log ratio)” value was -1.93. With G10U G45A U106A the “polymerase ribozyme fitness (log ratio)” value was -0.0856. With C11A A46U C64A G113U the “polymerase ribozyme fitness (log ratio)” value was -6.19. With U9G G63C C72A the “polymerase ribozyme fitness (log ratio)” value was -3.45. For G10A C13A C49G A84C, the “polymerase ribozyme fitness (log ratio)” value was -0.63. In the case of C11A C99A C123A, the “polymerase ribozyme fitness (log ratio)” value is reported as -5.29. For C11A C72U A75G U129A, the “polymerase ribozyme fitness (log ratio)” value was -3.18. For G10A U96A, the “polymerase ribozyme fitness (log ratio)” value was -0.657. For G10U U21G A46U, the “polymerase ribozyme fitness (log ratio)” value was -3.02. In the case of G10C C49A G71A, the “polymerase ribozyme fitness (log ratio)” value is reported as -2.07. For U9G C73U G113A, the “polymerase ribozyme fitness (log ratio)” value was -0.47. For U9G G39A, the “polymerase ribozyme fitness (log ratio)” value was 0.968. For C11A A27U C34A C72G C97A G120U G127A U129C, the “polymerase ribozyme fitness (log ratio)” value was -6. With G10U G17U G45A C85U C123G the “polymerase ribozyme fitness (log ratio)” value was -0.92. In the case of U9G U59G C88A A118U, the “polymerase ribozyme fitness (log ratio)” value is reported as 0.424. In the case of G10C C13A G57U G61C A111U, the “polymerase ribozyme fitness (log ratio)” value is reported as -5.2. For U9G C11G G45C, the “polymerase ribozyme fitness (log ratio)” value was -5.66. With U9G G10C C11A C15A A37G C49G C85U A95U C123U the “polymerase ribozyme fitness (log ratio)” value was -3.19. In the case of G10A C49A G93U U112G, the “polymerase ribozyme fitness (log ratio)” value is reported as -1.97. In the case of G10U C101A, the “polymerase ribozyme fitness (log ratio)” value is reported as -1.56. In the case of U9G U14A C31U G69U G117A G127C, the “polymerase ribozyme fitness (log ratio)” value is reported as -4.64. For G10U C11U G71U C79U, the “polymerase ribozyme fitness (log ratio)” value was -0.361. For G10C C20A G39C A46C, the “polymerase ribozyme fitness (log ratio)” value was -5.66. With G10C C73A G128A the “polymerase ribozyme fitness (log ratio)” value was -2. With G10A C11A U14G U54C C56U U81A the “polymerase ribozyme fitness (log ratio)” value was -2.09. In the case of G10C G42A A43U C80A U132A, the “polymerase ribozyme fitness (log ratio)” value is reported as -5.05. In the case of G10C G63A A75G C123U, the “polymerase ribozyme fitness (log ratio)” value is reported as -0.173. With C11A C62G the “polymerase ribozyme fitness (log ratio)” value was -2.04. With C11A C62A the “polymerase ribozyme fitness (log ratio)” value was -2.86. With C11A C62U the “polymerase ribozyme fitness (log ratio)” value was -1.47. In the case of C11A A46U C53A C72A, the “polymerase ribozyme fitness (log ratio)” value is reported as -2.19. In the case of U9G G48A U81A C89A G93U C115G C123G, the “polymerase ribozyme fitness (log ratio)” value is reported as -6.43. With G10C G77U A111U the “polymerase ribozyme fitness (log ratio)” value was -4.57. In the case of G10A G19A, the “polymerase ribozyme fitness (log ratio)” value is reported as -0.895. For U9G U38A G47C C49A, the “polymerase ribozyme fitness (log ratio)” value was -3.06. In the case of G10U C22U A46G U54G C56G G61A A74U U92A C114A U116A, the “polymerase ribozyme fitness (log ratio)” value is reported as -6.68. In the case of C11A G47A C62A, the “polymerase ribozyme fitness (log ratio)” value is reported as -3.74. For G10C C72U A118G, the “polymerase ribozyme fitness (log ratio)” value was -1.84. In the case of G10C G42A G63U A91C G113A G122U, the “polymerase ribozyme fitness (log ratio)” value is reported as -4.47. With C11A C49A C53U A90U U126C the “polymerase ribozyme fitness (log ratio)” value was -4.54. In the case of U9G C13U C73U A119G, the “polymerase ribozyme fitness (log ratio)” value is reported as 1.11. With C11A A16U A24U C31G C34G A37C C73A C115U G117C the “polymerase ribozyme fitness (log ratio)” value was -7.35. For U9G G57A U78A A100C, the “polymerase ribozyme fitness (log ratio)” value was -1.29. For G10U C56A A74G U132C, the “polymerase ribozyme fitness (log ratio)” value was -1.83. With C11A C40U G48C C79U C102U the “polymerase ribozyme fitness (log ratio)” value was -5.15. For G10A A43U G57U U130C, the “polymerase ribozyme fitness (log ratio)” value was -1.83. In the case of G10U C101A U125G, the “polymerase ribozyme fitness (log ratio)” value is reported as -2.32. For G10C A46G C124U, the “polymerase ribozyme fitness (log ratio)” value was -0.222. For C11A C89U G135U, the “polymerase ribozyme fitness (log ratio)” value was -2.46. With C11A G45U the “polymerase ribozyme fitness (log ratio)” value was -2.48. With U9G C22G U81C the “polymerase ribozyme fitness (log ratio)” value was -3.31. In the case of U9G G17U G60C U96C C104U G117A, the “polymerase ribozyme fitness (log ratio)” value is reported as -3.16. For U9G C72U C94A G110A G113U A121G, the “polymerase ribozyme fitness (log ratio)” value was -6.14. In the case of C11A A18U, the “polymerase ribozyme fitness (log ratio)” value is reported as -3. In the case of C11A A18C, the “polymerase ribozyme fitness (log ratio)” value is reported as -3.94. For G10A G63A U130G, the “polymerase ribozyme fitness (log ratio)” value was -0.867. In the case of G10A A68G U112C, the “polymerase ribozyme fitness (log ratio)” value is reported as -1.25. For G10U G52U U96G, the “polymerase ribozyme fitness (log ratio)” value was -0.544. For G10A G71C, the “polymerase ribozyme fitness (log ratio)” value was -0.717. For G10A U33C, the “polymerase ribozyme fitness (log ratio)” value was -4.02. For G10U G48C, the “polymerase ribozyme fitness (log ratio)” value was -0.778. In the case of C11A C15U G48U A90G U112A, the “polymerase ribozyme fitness (log ratio)” value is reported as -2.88. For G10A U132A, the “polymerase ribozyme fitness (log ratio)” value was 0.124. With U9G G65U the “polymerase ribozyme fitness (log ratio)” value was -5.74. For U9G C22G C101A C115U, the “polymerase ribozyme fitness (log ratio)” value was -3.13. In the case of G10A C12U G36U C53A, the “polymerase ribozyme fitness (log ratio)” value is reported as -0.13. With G10C C13G the “polymerase ribozyme fitness (log ratio)” value was -0.638. With G10U C70U A83U A90G C115U the “polymerase ribozyme fitness (log ratio)” value was -2.59. For G10U G25U C34A C99U G113C, the “polymerase ribozyme fitness (log ratio)” value was -6.47. With G10A A37U G47C U112C U131A the “polymerase ribozyme fitness (log ratio)” value was -0.391. In the case of G10C G42C, the “polymerase ribozyme fitness (log ratio)” value is reported as -2.24. In the case of G10A G44U U54C G63A C70A U130C, the “polymerase ribozyme fitness (log ratio)” value is reported as -4.01. In the case of G10A G39U G42A C124A, the “polymerase ribozyme fitness (log ratio)” value is reported as -0.542. For U9G C40A C76U C114A, the “polymerase ribozyme fitness (log ratio)” value was -2.63.
